# From patent US20150351390A1, “COMPOSITIONS AND METHODS FOR AUXIN-ANALOG CONJUGATION” (PIONEER HI-BRED INTERNATIONAL, INC., priority 2012, published 2015)
# B1: AIGH3-9: GH3 protein, accession EFH58389 (protein, listed as Arabidopsis lyrata)
# chain: MDVMKLDYNYKGGNALTELERITSKAAEVQDNILCGILERNKDTEYLSKYMKGSKDVVEFKRSVPIITYKDIYPYIQRIANGEDSSLITGHPITEILCSSGTSAGEPKLMPTISEDLDRRTFLYNLIIPIVNKYIPGLDKGKAMYLNFVKAETSTPCGLPIRAVLTSYYKSKHFQCRPYDPFNDLTSPIQTILCEDSNQSMYCQLLAGLIHRHKVMRLGAVFASAFLRAISYLEKKWSQLCEDIRTGRLNPMITDPGCQIAMSCLLTSPDPELASEIEEICSRSSWKGILCHLWPRAKFIEAVVTGSMAQYIPALEFFGQGKIPLVCPMYASSETYFGVNVEPLSKPSDVVFTLLPNMCYFEFIPLGKNGALSFDLDDDEQVPCDKVVDLVNVKLGRYYELVVTTFAGLYRYRIGDVLQVAGFYNEAPQFRFICRRNVVLSIDLDKTNEEDLHRSITLAKKKLGSNAFLAEYTSYADTSSVPGHYVLFWEIQGHLEPKLMEGCCVAVEEELDYIYRQCRTKERSIGALEIRVVKPGTFEKLMDLIISQGGSFNQYKTPRCVKSNSATFKLLNGHVTASFFSPRDPTWVA
# B2: SmXP_002986992: GH3 protein, accession XP_002986992 (protein, listed as Selaginella moellendorffii)
# chain: MEDFEAVCKNAVQAQEEALVQILQRNGSCHYLQRFGQPLCLKSFKTQLPIISYDNISPELQQIADHGTSHLLLGCDPILYFSFSSGTSSGKHKILPQTNCGYSLLARAYASSNAYRDEVFPLESTKPIGLHFVYSGEQYKAKSGLLLGAGSTNYYKSEAYNQEAETLATPYEALLAGSDWQQTTYCHLLCGLVQRHKIEFIHATFAYTLSEAFRLLESDWKILCEDISARRVSESKVTDEKLRVPVLKLMERELRGKDSSQVAREISEIFVTSKESRWSGLLPLLWPRAKYVHTVVTGAMEPYIPVLKKYAGDKLAIVGFDYSASEGYLGINMRPATPPEEVVFTLIPYTMFFEFIPVDPEEVPDHQQGETLGFKDLQVGKQYELVVTTFEGLYRYRIGDVVKVTGFHHESPIVAFSYRKNAVLSINAEKVDEQELQKVVMGSAGPLEIANFTSCADFATKERPHYVIYWELKNDGDNSRHEELRDSCNALDRGFNAAYLVGRVDKTLGALELVTVKQGTFEKLMEKAIESGASASQYKTPRCIKSPALLELLDQGAIGRYTSSEDISSLLAEDWKPSVIHGL
# B3: SmXP_002983845: GH3 protein, accession XP_002983845 (protein, listed as Selaginella moellendorffii)
# chain: MENEQLLLEKLESSSWSPGEAQDKVLAEILEKNAATDYFNRHGLRAATKEVFRQRAPVIEYEDIKDEINRIADGEAATLLCANPIADMFTSSGTSGGAHKLFPKVEGHYAVSKYFFDLATALLNRDLPGLRTGKALYFLYVRSGRKTPGGLPAYPALTGYYNSLEFRNRPFDPSNDYTSPLEVILCTDSVQASYCHLLCGLIHARDVTKLGCFFASVFVRSIRCLEAWWQELSRDIRTGTLSERVVDPACREAVEKILRPDPELANVIDEACSSGSLKGIVRKLWPSAKAIDTVVTGAMEQYVGEVDYLTDGLPIASMIYASSESFFGVNLKPLCEPSQISYMFLPETSYYEFLPVARSEEKASREEPVELVDVEQGHEYELVITTNAGLYRYRMGDVLRVEGFHNKAPLFSFVCRTNVLLSIDSDKTDEKELQTAVMNAFAALRNGVTSKEGEAIRLTDYTSYADLSSNPPHYVIYWELSSELHLEPEKAGECCYKMEESLSVVYHRGRMERSIGALELRLVTPGTFNRIADDAASRGGSVSQFKLPRCIKKNATRMLEIVESGVYQQYFSPRAPKY
# B4: AtGH3-9: GH3 protein, accession O82243 (protein, listed as Arabidopsis thaliana)
# chain: MDVMKLDHDSVLKELERITSKAAEVQDNILRGILERNKDTEYLSKYMNGSKDVLEFKRAVPIIIYKDIYPYIQRIANGEDSSLITGHSITEILCSSGTSAGEPKLMPTIPEDLDRRTFLYNLIIPIVNKYITGLDKGKAMYLNFVKAETSTPCGLPIRAVLTSYYKSKHFQCRPYDPFNDLTSPIQTILCEDSNQSMYCQLLAGLIHRHKVMRLGAVFASAFLRAISYLEKKWSQLCEDIRTGSLNPMITDPGCQMAMSCLLMSPNPELASEIEEICGRSSWKGILCQLWPKAKFIEAVVTGSMAQYIPALEFFSQGKIPLVCPMYASSETYFGVNVEPLSKPSDVVFTLLPNMCYFEFIPLGKNGTLSFDLDDDEQVPCDKVVDLVNVKLGRYYELVVTTFAGLYRYRIGDVLQVAGFYNGAPQFRFICRRNVVLSIDLDKTNEEDLHRSITLAKKKLGSNAFLAEYTSYADTSSVPGHYVLFWEIQGHLEPKLMEECCVAVEEELDYIYRQCRTKERSIGALEIRVVKPGTFEKLMDLIISQGGSFNQYKTPRCVKSNSATFKLLNGHVMASFFSPRDPTWVP
# B5: PpGH3-1: GH3 protein, accession CAD42870 (protein, listed as Physcomitrella patens)
# chain: MASEVAKPVENGIHPKLEQSFDAPAATKPSNSELLKLHRDGVPFVMPSKRGIDTTAPDFDPQDFLDLLAEDVMFIQHEKLREILEVQADVEYLRRVGLNGRTDVESFRKCVPIVSYGDLEADIMRVVNGEKTPIFTVDPIVTLNLSSGTTAGKPKFIPSTTRAYEYFMFLQTFVTSIYRREFPGYKDGTSFTLAFAGKQIDTPSGIKAGAQSTNHFRGPMFRNRVRNANREYCVPDEVILSDDTTQSMYCHLLCALAQAPEIVKVYGTFAASIVSAVRALQKHWSEIVEDIRTGTLNAKITEPEMRTAVQQMLHPNPDLASRIEEECSKDNWEGILPRLFPNAHFVSCVISGSMLQYAPALKHFSGHLPTISLAYAACECSFIGFNPSMKCAPEDITYMLWPETAYYEFIPLDEDSNPEQDGDVVRTVEACDLEVGRQYELVVTNVIGLYRYRLGDVLTMKRFHKTAPVFEFVRRKNVILSVHTDKTDEKELQSVVNLATEALAGTGMELSDYTSTADVSTLPGRYVIFWEMVDSSDLDYDVLQHCANTLDANFNSDYRRWRSGHQIGPLELRIVKEGTFNRVMDSAVARGASPSQYKPPRCVNNPHTRQILDDGLVASFHSTITPNPAPIALTGS
# Assay: LC-MS assay of GH3 conjugation of 2,4-D with Asp or Glu
# Type: biochemical
# Details: conjugation of 2,4-D with Asp by recombinant GH3 protein; 2,4-D-Asp product by LC-MS; 5 mM 2,4-D substrate
# Protocol: (§1) To detect and monitor the formation of acyl conjugates with 2,4-D or dicamba, a sensitive LC-MS method was developed using the respective amino acid conjugate standards. […] The reaction was performed at 30° C., 105 rpm, for 3 hours in buffer containing 20 mM Tris-HCl (pH 8.0), 5 mM MgCl2, 5 mM auxin (IAA, 2,4-D or dicamba), 5 mM ATP, 5 mM Asp or Glu, 1 mM DTT and 44 to 164 μg/mL purified GH3 protein in 100 μL reaction. After 3 hours of reaction, 400 μL 100% MeOH was added to the reaction mixture for protein precipitation. The supernatant was diluted 20× in water and then analyzed by LC-MS (AB Sciex 4000 QTrap coupled with Shimadzu Nexera UHPLC) using a Phenomenex Luna 3 μm Phenyl-Hexyl (00B-4256-Y0) column. The concentration of the conjugates was calculated based on the standards. Kinetic parameters were estimated by fitting initial velocity values to the Michaelis-Menten equation.
# (§2) The GH3 superfamily conjugase activity analysis of IAA, 2,4-D or dicamba with Asp or Glu was done using LC-MS to analyze the final conjugate products as described in Example 1. Protein sequences of GH3 homologs (Table 3) were obtained from public databases (NCBI, http://www.ncbi.nlm.nih.gov/) by Blast analysis of AtGH3.17 protein sequence (accession # Q9FZ87). Coding sequences were designed for optimal expression in E. coli based on the protein sequences and synthesized. Synthesized coding sequences along with N-term his-tag coding sequences were cloned into a pET24a-based E. coli expression vector. The E. coli expression vectors were transformed into OverExpress C41(DE3) cells (Lucigen) for protein expression. Recombinant E. coli strains were inoculated into 5 ml LB media supplemented with 40 mg/L kanamycin and cultured overnight at 37° C. The overnight culture (0.5 mL) was inoculated into 50 mL LB medium plus 40 mg/L kanamycin and grown at 30° C. until OD600 reached 0.6. The cultures were induced with 0.2 mM IPTG at 16° C., 230 rpm overnight. Cells were harvested by centrifugation at 7,000 rpm for 10 mins. The cell pellet from 50 mL of cell culture was frozen and thawed twice and then lysed in 800 μL lysis buffer A (150 mM NaCl, 50 mM Tris-HCl pH 8.0, 5 mM MgCl2, 10% glycerol) plus 20 mM imidazole, 1 mM DTT, 0.2 mg/ml lysozyme, 1/200 protease inhibitor cocktail (EMD set3, EDTA free) and 1/2000 endonuclease. Lysate was then centrifuged at 13,000 rpm for 30 min at 4° C. Supernatant was loaded onto 200 μL Ni-NTA columns pre-equilibrated with buffer A with 20 mM imidazole at 4° C. Each column was then washed with (1) 2×800 μL of buffer A with 10 mM imidazole, (2) 2×800 μL of buffer A with 20 mM imidazole and (3) 2×200 μL of buffer A with 50 mM imidazole. Protein was eluted with 200 μL of buffer A with 250 mM imidazole. The concentration was measured by Bradford assay. Purified protein was used in conjugation reaction assays as described in example 1.
row,Molecule,"kcat (hrs−1) 2,4-D-Asp"
1,B1,0.000 h⁻¹
2,B2,0.000 h⁻¹
3,B3,0.090 h⁻¹
4,B4,0.000 h⁻¹
5,B5,0.078 h⁻¹

# Same assay, conditions: conjugation of 2,4-D with Glu by recombinant GH3 protein; 2,4-D-Glu product by LC-MS; 5 mM 2,4-D substrate
row,Molecule,"kcat (hrs−1) 2,4-D-Glu"
1,B1,0.015 h⁻¹
2,B2,0.006 h⁻¹
3,B3,0.052 h⁻¹
4,B4,0.005 h⁻¹
5,B5,0.122 h⁻¹

# Same assay, conditions: result in words
row,Molecule,"2,4-D conjugation activity with Asp or Glu"
1,B1,"2,4-D conjugases"
2,B2,"2,4-D conjugases"
3,B3,"2,4-D conjugases"
4,B4,"2,4-D conjugases"
5,B5,"2,4-D conjugases"

# Assay: LC-MS assay of GH3 conjugation of IAA with Asp or Glu
# Type: biochemical
# Details: conjugation of IAA with Asp by recombinant GH3 protein; IAA-Asp product by LC-MS
# Protocol: as §1, §2
row,Molecule,kcat (hrs−1) IAA-Asp
1,B1,0.000 h⁻¹
2,B2,0.000 h⁻¹
3,B3,0.000 h⁻¹
4,B4,0.000 h⁻¹
5,B5,0.000 h⁻¹

# Same assay, conditions: conjugation of IAA with Glu by recombinant GH3 protein; IAA-Glu product by LC-MS
row,Molecule,kcat (hrs−1) IAA-Glu
1,B1,0.000 h⁻¹
2,B2,0.000 h⁻¹
3,B3,0.000 h⁻¹
4,B4,0.000 h⁻¹
5,B5,0.000 h⁻¹

# Same assay, conditions: result in words
row,Molecule,IAA conjugation activity with Asp or Glu
1,B1,IAA-inactive
2,B2,IAA-inactive
3,B3,IAA-inactive
4,B4,IAA-inactive
5,B5,IAA-inactive
